Here are results for ten molecules from patent US20230159934, “INSULIN RECEPTOR APTAMER AND PHARMACEUTICAL COMPOSITION FOR TREATING DIABETES COMPRISING THE SAME” (APTAMER SCIENCES INC., published 2023).

Conditions in all cases: chain copies: 2
The target in data set [1] is T1, Insulin receptor (hIR) expressed on Rat-1/hIR cells (Homo sapiens, UniProt P06213;P06213 P06213:28-758,P06213:763-1382). Briefly: cell_activity; IR phosphorylation, 200 nM, Rat-1/hIR; Table 5 gives 0.83. The method, then:
(§1) To identify the insulin receptor phosphorylation activity of the chemical variant samples of A48m prepared in Example 2-1, an experiment was performed as follows. Particularly, Rat-1/hIR cells were seeded on a 12-well plates at a density of 10⁵ cells per well and cultured overnight in a high glucose Dulbecco's modified Eagle's medium (DMEM) supplemented with 10% fetal bovine serum (FBS). The cells untreated with the aptamer samples were incubated in the DMEM not including FBS for 3 hours, washed three times with 1×PBS, and incubated in a Krebs-Ringer HEPES buffer [25 mM HEPES (pH 7.4), 120 mM NaCl, 5 mM KCl, 1.2 mM MgSO₄, 1.3 mM CaCl₂, and 1.3 mM KH₂PO₄] for 1 hour. The aptamer samples, which were the chemical variants of A48m prepared in Example 2-1, were heated at 95° C. for 5 minutes and cooled at room temperature such that a three-dimensional structure of each aptamer was reconstructed. The aptamers were dissolved in the Krebs-Ringer HEPES buffer for preparation.
(§2) The aptamer samples were added to each well of the 12-well plate and incubated for 1 hour. After 1 hour, the plate was washed three times with 1×PBS and the cells were isolated from the plate and lysed with a lysis buffer. The cell lysates were centrifuged at 4° C. at 14,000 rpm for 15 minutes to isolate proteins. […] Intensities of bands formed on the membrane were quantified via comparison with A48m.

The target in data set [2] is T1, Insulin receptor (hIR) expressed on …. Put plainly: cell_activity; IR phosphorylation reference, 200 nM, Rat-1/hIR. The protocol: as §1, §2
The target is the same in data set [3]. Briefly: cell_activity; IR phosphorylation, 200 nM, Rat-1/hIR. The protocol: as §1
The aptamer samples were added to each well of the 12-well plate and incubated for 1 hour. After 1 hour, the plate was washed three times with 1×PBS and the cells were isolated from the plate and lysed with a lysis buffer. The cell lysates were centrifuged at 4° C. at 14,000 rpm for 15 minutes to isolate proteins. The isolated samples were heated at 100° C. for 5 minutes with a 5× sample buffer and slowly cooled at room temperature to prepare western blot samples. The prepared samples were subjected to electrophoresis on 4%-12% SDS-PAGE for 1 hour and 30 minutes and transferred to a nitrocellulose membrane for 1 hour and 30 minutes. Then, the membrane was blocked at room temperature for 40 minutes in a blocking buffer solution (1×PBST, 3% skim milk) and incubated for 1 hour at room temperature with a primary antibody [anti-phosphor-IR (10C3), Santa Cruz Biotechnology or anti-β-actin (D6A8), Cell Signaling Technology] diluted in a blocking buffer at 1:500 or 1:1000. The membrane was washed three times with 1×PBS and incubated for 1 hour at room temperature with a secondary binding antibody diluted in the blocking buffer at 1:20000, and washed three times with 1×PBST. An ECL solution was sprayed onto the membrane, followed by incubation at room temperature for 1 minute and exposure to x-rays. Intensities of bands formed on the membrane were quantified via comparison with A48m.

Data set [4] shares this target. Put plainly: cell_activity; IR phosphorylation, 200 nM, Rat-1/hIR; Table 5 gives 0.9. The method, then:
as §1, §2

Data set [5] has the same target. Briefly: cell_activity; IR phosphorylation, 200 nM, Rat-1/hIR; Table 5 gives 0.77. The method, then: as §1, §2
The target is the same in data set [6]. Briefly: cell_activity; IR phosphorylation, 200 nM, Rat-1/hIR; Table 5 gives 0.95. The method, then: as §1, §2
The target in data set [7] is T2, Insulin receptor on differentiated 3T3-L1 adipocytes (UniProt P15208;P15208 P15208:28-748,P15208:753-1372). Put plainly: cell_activity; lipolysis (glycerol release) inhibition in 3T3-L1 adipocytes; insulin 2.07 nM. The method, then:
To identify the effect of the chemically optimized A48m (A48m combi 2 to 5) on lipolysis inhibition as insulin receptor aptamers, an amount of glycerol released in a lipolysis process was measured by using completely differentiated 3T3-L1 adipocytes.
Particularly, for serum deficiency, the completely differentiated 3T3-L1 adipocytes were treated with DMEM with no FBS for 3 hours and treated with a Krebs-Ringer HEPES buffer solution for 1 hour to induce lipolysis caused by deficiency of glucose. The adipocytes were treated respectively with insulin or the A48m combi 3 aptamer in concentrations of 0.93 nM, 2.59 nM, 7.26 nM, 20.34 nM, 56.94 nM, 159.44 nM, 446.43 nM, 1250 nM, and 3500 nM for 4 hours, and then a buffer used to treat the cells was collected. 20 μl of the collected buffer was added to a 96-well plate and 200 μl of a free glycerol reagent (Sigma F6428) was added thereto, followed by reaction at room temperature for 30 minutes. Then, concentration-dependent color development of glycerol released from the cells was measured by measuring absorbance at 540 nm.

Data set [8] has as its target T2, Insulin receptor on differentiated …. Briefly: cell_activity; glucose uptake in differentiated 3T3-L1 adipocytes; insulin 9.6 nM. The protocol: For serum deficiency, the completely differentiated 3T3-L1 adipocytes were treated with DMEM with no FBS for 3 hours and treated with a Krebs-Ringer HEPES buffer solution for 1 hour. Subsequently, the adipocytes were treated respectively with insulin or the A48m combi 3 aptamer in concentrations of 1.6 nM, 8 nM, 40 nM, 200 nM, and 1000 nM for a given time and then treated with 2-deoxy[14C]glucose (0.1 μCi/ml) for 10 minutes. The resultant was washed three times with PBS supplemented with 20 mM glucose and the cells were dissolved using a solution including 0.5 N NaOH and 1% SDS. An amount of 2-Deoxy-D-glucose absorbed into the cells was observed using a liquid scintillation counter.

T1 sequence (P06213 28-758, chain 1 of 2): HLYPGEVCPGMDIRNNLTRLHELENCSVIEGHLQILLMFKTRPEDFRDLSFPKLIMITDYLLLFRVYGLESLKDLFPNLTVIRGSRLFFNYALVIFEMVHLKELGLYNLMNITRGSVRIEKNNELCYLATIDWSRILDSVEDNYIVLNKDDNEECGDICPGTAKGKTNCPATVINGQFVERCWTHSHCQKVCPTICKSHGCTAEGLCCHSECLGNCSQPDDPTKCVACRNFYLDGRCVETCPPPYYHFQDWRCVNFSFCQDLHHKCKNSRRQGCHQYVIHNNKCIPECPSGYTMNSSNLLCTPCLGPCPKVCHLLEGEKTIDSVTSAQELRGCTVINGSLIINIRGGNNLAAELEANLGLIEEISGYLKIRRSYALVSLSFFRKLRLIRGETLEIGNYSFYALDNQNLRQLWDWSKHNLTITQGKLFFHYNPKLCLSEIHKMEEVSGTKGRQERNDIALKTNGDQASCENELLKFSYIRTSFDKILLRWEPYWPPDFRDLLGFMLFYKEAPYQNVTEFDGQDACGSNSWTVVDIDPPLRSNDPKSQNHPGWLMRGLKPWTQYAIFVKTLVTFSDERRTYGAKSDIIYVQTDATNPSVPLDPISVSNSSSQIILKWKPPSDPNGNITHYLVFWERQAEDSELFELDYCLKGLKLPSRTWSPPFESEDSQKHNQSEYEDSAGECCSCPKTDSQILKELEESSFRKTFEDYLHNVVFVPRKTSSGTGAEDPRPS
T1 sequence (P06213 763-1382, chain 2 of 2): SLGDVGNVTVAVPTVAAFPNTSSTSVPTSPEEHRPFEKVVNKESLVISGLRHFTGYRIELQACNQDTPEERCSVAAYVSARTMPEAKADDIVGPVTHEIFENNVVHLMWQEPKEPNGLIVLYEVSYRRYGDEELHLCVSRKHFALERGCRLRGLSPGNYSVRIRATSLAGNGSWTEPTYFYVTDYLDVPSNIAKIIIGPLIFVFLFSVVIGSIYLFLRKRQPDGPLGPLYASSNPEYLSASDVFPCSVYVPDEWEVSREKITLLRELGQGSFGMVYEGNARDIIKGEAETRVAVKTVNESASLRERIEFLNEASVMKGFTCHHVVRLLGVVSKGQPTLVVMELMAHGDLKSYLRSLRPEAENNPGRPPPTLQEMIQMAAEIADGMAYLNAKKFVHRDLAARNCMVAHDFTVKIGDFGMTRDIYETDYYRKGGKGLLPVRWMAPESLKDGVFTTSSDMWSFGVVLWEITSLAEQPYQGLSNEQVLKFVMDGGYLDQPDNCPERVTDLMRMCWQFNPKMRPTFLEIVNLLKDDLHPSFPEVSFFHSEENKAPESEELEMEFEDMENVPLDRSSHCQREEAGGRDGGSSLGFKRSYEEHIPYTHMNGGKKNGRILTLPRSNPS
T2 sequence (P15208 28-748, chain 1 of 2): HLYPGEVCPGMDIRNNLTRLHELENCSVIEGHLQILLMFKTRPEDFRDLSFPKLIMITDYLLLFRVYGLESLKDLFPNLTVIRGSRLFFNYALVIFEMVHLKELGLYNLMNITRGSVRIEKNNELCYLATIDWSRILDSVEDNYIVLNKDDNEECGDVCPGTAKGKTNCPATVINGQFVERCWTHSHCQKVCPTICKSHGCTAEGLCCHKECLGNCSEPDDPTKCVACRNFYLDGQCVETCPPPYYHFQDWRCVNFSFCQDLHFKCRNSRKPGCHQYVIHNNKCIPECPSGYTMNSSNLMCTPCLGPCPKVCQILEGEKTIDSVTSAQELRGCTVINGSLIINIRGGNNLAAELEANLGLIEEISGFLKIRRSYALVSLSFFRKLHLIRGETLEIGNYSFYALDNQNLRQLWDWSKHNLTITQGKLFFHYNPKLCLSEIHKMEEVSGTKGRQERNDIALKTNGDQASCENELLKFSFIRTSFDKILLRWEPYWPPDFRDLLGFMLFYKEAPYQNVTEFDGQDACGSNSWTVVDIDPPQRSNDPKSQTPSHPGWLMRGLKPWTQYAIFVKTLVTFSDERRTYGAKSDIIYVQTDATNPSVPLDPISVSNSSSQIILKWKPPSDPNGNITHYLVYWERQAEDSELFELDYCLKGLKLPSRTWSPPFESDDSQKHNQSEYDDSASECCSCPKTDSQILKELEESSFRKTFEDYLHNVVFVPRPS
T2 sequence (P15208 753-1372, chain 2 of 2): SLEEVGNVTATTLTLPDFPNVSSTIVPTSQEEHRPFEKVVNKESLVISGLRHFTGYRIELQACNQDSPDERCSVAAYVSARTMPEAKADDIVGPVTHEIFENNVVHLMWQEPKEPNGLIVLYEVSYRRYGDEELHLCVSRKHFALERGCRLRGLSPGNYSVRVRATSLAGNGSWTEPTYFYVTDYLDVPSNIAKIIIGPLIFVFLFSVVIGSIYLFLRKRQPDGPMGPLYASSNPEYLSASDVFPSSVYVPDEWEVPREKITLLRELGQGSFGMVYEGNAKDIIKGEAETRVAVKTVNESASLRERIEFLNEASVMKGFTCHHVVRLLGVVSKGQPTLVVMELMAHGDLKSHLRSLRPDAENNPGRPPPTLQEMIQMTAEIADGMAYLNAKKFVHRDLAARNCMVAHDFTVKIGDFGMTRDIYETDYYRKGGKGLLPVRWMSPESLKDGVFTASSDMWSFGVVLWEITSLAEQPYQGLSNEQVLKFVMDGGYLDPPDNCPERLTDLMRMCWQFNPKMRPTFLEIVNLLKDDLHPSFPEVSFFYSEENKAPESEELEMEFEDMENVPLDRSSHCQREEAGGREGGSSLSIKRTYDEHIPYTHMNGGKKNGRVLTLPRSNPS

CGCCTGGTGTTCTAGACGACCTATAGGTTAGGC (ssDNA, P = naphthyl-dU; benzyl-dU at position 10) [A48m P10Z]: the activity in data set [1] is 2.7 fold of A48m.
With CGCCTGGTGTTCTAGACGACCTATAGGTTAGGC (ssDNA, P (n) = naphthyl-dU) [A48m (A48 seq 1-19)], the activity in data set [2] was 1 fold of A48m.
For CGCCTGGTGTTCTAGACGACCTATAGGTTAGGC (ssDNA, P = naphthyl-dU; 2'-F at position 27) [A48m G27 2'-F], the activity in data set [3] is 1.11 fold of A48m.
In the case of CGCCTGGTGTTCTAGACGACCTATAGGTTAGGC (ssDNA, P = naphthyl-dU; benzyl-dU at position 13) [A48m P13Z], in data set [4], the activity was 1 fold of A48m.
For the molecule CGCCTGGTGTTCTAGACGACCTATAGGTTAGGC (ssDNA, P = naphthyl-dU; benzyl-dU at position 29) [A48m P29Z], the activity in data set [5] is 0.9 fold of A48m.
Consider CGCCTGGTGTTCTAGACGACCTATAGGTTAGGC (ssDNA, P = naphthyl-dU; benzyl-dU at position 28) [A48m P28Z], for which, in data set [6], the activity is 1.09 fold of A48m.
CGCCTGGTGTTCTAGACGACCTATAGGTTAGGC (ssDNA, P = naphthyl-dU; 2'-OMe at position 2) [A48m G2 2'-OMe]: the activity in data set [3] is 1.28 fold of A48m.
As for CGCCTGGTGTTCTAGACGACCTATAGGTTAGGC (ssDNA, P = naphthyl-dU; C3 linker at position 18) [A48m G18 C3-linker], the activity in data set [3] is 1.16 fold of A48m.
Same read-out and setting: next, CGCCTGGTGTTCTAGACGACCTATAGGTTAGGC (ssDNA, P = naphthyl-dU; C3 linker at position 12) [A48m C12 C3-linker]: 1.7 fold of A48m.

B1: A48m combi 3 (ssDNA)
DNA: CCUGGTGTTTAGACGACCTATAGGTTAGG
modifications: CmeCmeUmeGGPGZPLPAmeGAmeCfGAmeCfCmePAmePAGGmePPAmeGmeGme-idT; me = 2'-OMe, f = 2'-F, P = naphthyl-dU, Z = benzyl-dU, L = C3 linker, 3' idT [2'-OMe at 1,2,3,11,13,16,18,20,24,27,28,29; 2'-F at 14,17; naphthyl-dU at 6,9,10,19,21,25,26; benzyl-dU at 8; C3 linker (left out) between 9 and 10; 3' idT (left out) after 29]
In the case of B1, the IC50 (in general, the midpoint of a concentration-inhibition curve) in data set [7] is 11 nM. In addition, the EC50 (commonly the concentration that produces a half-maximal response) in data set [8] worked out at 16.5 nM.
